Where two headings read alike, the source gives them in different places.
Assays:
Test in all cases: cell-based or functional assay
[1] = target: T1, human GPC3 on tumor cell lines (HepG2, Huh-7, NCI-H661, MKN-45, NCI-H23, BxPC-3, NCI-H292) (human, UniProt P51654 25-554)
[2] = target: T1, human GPC3 on tumor cell lines (HepG2, …); remark: listed apart in the source
[3] = target: T1, human GPC3 on tumor cell lines (HepG2, …); remark: listed apart in the source
[4] = target: T1, human GPC3 on tumor cell lines (HepG2, …); remark: listed apart in the source

Row | Binder | HepG2 on Incucyte IC50 [1] | HepG2 on Incucyte Max % killing [1] | Huh7 on xCELLigence IC50 [1] | Huh7 on xCELLigence Max % killing [1] | IC50 (M) BxPC-3, xCELLigence human TDC assay [2] | IC50 (M) HepG2, xCELLigence human TDC assay [2] | IC50 (M) Huh-7, xCELLigence human TDC assay [2] | IC50 (M) NCI-H23, xCELLigence human TDC assay [2] | IC50 (M) NCI-H661, xCELLigence human TDC assay [2] | other results
1 | A022600179 (other) DVQLVESGGGVVQPGGSLRLSCVASGYVHKINFYGWYRQAPGKEREKVAHISIGDQTDYADSAKGRFTISRDESKNTVYLQMNSLRPEDTAAYYCRALSRIWPYDYWGQGTLVTVSSGGGGSEVQLVESGGGLVQPGGSLRLSCVASGFTFSSFAMTWVRRPPGKGLEWVATITNGGVTSYRDSVKGRFTISRDNAKNTLYLEMTSLNPEDTAVYICANARRTGPRAPTDIGSYRGQGTLVTVSSGGGGSGGGSEVQLVESGGGVVQPGGSLRLSCAASGFTFRSFGMSWVRQAPGKGPEWVSSISGSGSDTLYADSVKGRFTISRDNSKNTLYLQMNSLRPEDTALYYCTIGGSLSRSSQGTLVTVSSA | 2920 pM | 76% | 6130 pM | 66% |  |  |  |  |  | 
2 | A022600427 (other) DVQLVESGGGVVQPGGSLRLSCVASGYVHKINFYGWYRQAPGKEREKVAHISIGDQTDYADSAKGRFTISRDESKNTVYLQMNSLRPEDTAAYYCRALSRIWPYDYWGQGTLVTVSSGGGGSEVQLVESGGGVVQPGGSLRLSCAASGFTFSSFAMTWVRRPPGKGLEWVATITNAGVTSYADSVKGRFTISRDNAKNTLYLQMNSLRPEDTALYICANARRTGPRAPTDIGSYRGQGTLVTVSSGGGGSGGGSEVQLVESGGGVVQPGGSLRLSCAASGSIFRSVFSSSTMEWYRQAPGKKRELVARIAPGEGTYYGALYADSVKGRFTISRDNAKNTVYLQMNSLRPEDTALYYCASGVAWGQGTLVTVSSGGGGSGGGSEVQLVESGGGVVQPGGSLRLSCAASGFTFRSFGMSWVRQAPGKGPEWVSSISGSGSDTLYADSVKGRFTISRDNSKNTLYLQMNSLRPEDTALYYCTIGGSLSRSSQGTLVTVSSA |  |  |  |  | > 1e-07 M | 1.03e-10 M | 1.37e-10 M | > 1e-07 M | 1e-10 M | 
3 | A022600170 (other) DVQLVESGGGVVQPGGSLRLSCVASGYVHKINFYGWYRQAPGKEREKVAHISIGDQTDYADSAKGRFTISRDESKNTVYLQMNSLRPEDTAAYYCRALSRIWPYDYWGQGTLVTVSSGGGGSEVQLVESGGGLVQPGGSLRLSCVASGFTFSSFAMTWVRRPPGKGLEWVATITNGGVTSYRDSVKGRFTISRDNAKNTLYLEMTSLNPEDTAVYICANARRTGPRAPTDIGSYRGQGTLVTVSSGGGGSGGGGSGGGGSGGGGSGGGGSGGGGSGGGGSEVQLVESGGGLVQPGGSLRLSCVASGSIFRSVFSSSTMEWYRQPPGKKRELVARIAPGDGTNYGALYADSVKGRFTISRDDAKKTVDLQMNSLKPEDTGVYFCASGVAWGQGTLVTVSSGGGGSGGGSEVQLVESGGGVVQPGGSLRLSCAASGFTFRSFGMSWVRQAPGKGPEWVSSISGSGSDTLYADSVKGRFTISRDNSKNTLYLQMNSLRPEDTALYYCTIGGSLSRSSQGTLVTVSSA | 319 pM | 97% | 186 pM | 103% |  |  |  |  |  | 
4 | A022600172 (other) DVQLVESGGGVVQPGGSLRLSCVASGYVHKINFYGWYRQAPGKEREKVAHISIGDQTDYADSAKGRFTISRDESKNTVYLQMNSLRPEDTAAYYCRALSRIWPYDYWGQGTLVTVSSGGGGSEVQLVESGGGLVQPGGSLRLSCVASGFTFSSFAMTWVRRPPGKGLEWVATITNGGVTSYRDSVKGRFTISRDNAKNTLYLEMTSLNPEDTAVYICANARRTGPRAPTDIGSYRGQGTLVTVSSGGGGSGGGSEVQLVESGGGVVQPGGSLRLSCAASGFTFRSFGMSWVRQAPGKGPEWVSSISGSGSDTLYADSVKGRFTISRDNSKNTLYLQMNSLRPEDTALYYCTIGGSLSRSSQGTLVTVSSGGGGSGGGSEVQLVESGGGLVQPGGSLRLSCVASGSIFRSVFSSSTMEWYRQPPGKKRELVARIAPGDGTNYGALYADSVKGRFTISRDDAKKTVDLQMNSLKPEDTGVYFCASGVAWGQGTLVTVSSA |  |  |  |  |  |  |  |  |  | HepG2 on Incucyte IC50 [3]: 601 pM; HepG2 on Incucyte Max % killing [3]: 81%; Huh7 on xCELLigence IC50 [3]: 67 pM; Huh7 on xCELLigence Max % killing [3]: 90%
5 | A022600169 (other) DVQLVESGGGLVQPGGSLRLSCVASGFTFSSFAMTWVRRPPGKGLEWVATITNGGVTSYRDSVKGRFTISRDNAKNTLYLEMTSLNPEDTAVYICANARRTGPRAPTDIGSYRGQGTLVTVSSGGGGSEVQLVESGGGVVQPGGSLRLSCVASGYVHKINFYGWYRQAPGKEREKVAHISIGDQTDYADSAKGRFTISRDESKNTVYLQMNSLRPEDTAAYYCRALSRIWPYDYWGQGTLVTVSSGGGGSEVQLVESGGGLVQPGGSLRLSCVASGSIFRSVFSSSTMEWYRQPPGKKRELVARIAPGDGTNYGALYADSVKGRFTISRDDAKKTVDLQMNSLKPEDTGVYFCASGVAWGQGTLVTVSSGGGGSGGGGSGGGGSGGGGSGGGGSGGGGSGGGGSEVQLVESGGGVVQPGGSLRLSCAASGFTFRSFGMSWVRQAPGKGPEWVSSISGSGSDTLYADSVKGRFTISRDNSKNTLYLQMNSLRPEDTALYYCTIGGSLSRSSQGTLVTVSSA |  |  |  |  |  |  |  |  |  | HepG2 on Incucyte IC50 [3]: 641 pM; HepG2 on Incucyte Max % killing [3]: 81%; Huh7 on xCELLigence IC50 [3]: 1020 pM; Huh7 on xCELLigence Max % killing [3]: 61%
6 | A022600412 (other) DVQLVESGGGVVQPGGSLRLSCVASGYVHKINFYGWYRQAPGKEREKVAHISIGDQTDYADSAKGRFTISRDESKNTVYLQMNSLRPEDTAAYYCRALSRIWPYDYWGQGTLVTVSSGGGGSEVQLVESGGGVVQPGGSLRLSCAASGFTFSSFAMTWVRRPPGKGLEWVATITNAGVTSYADSVKGRFTISRDNAKNTLYLQMNSLRPEDTALYICANARRTGPRAPTDIGSYRGQGTLVTVSSGGGGSGGGGSGGGGSGGGGSEVQLVESGGGVVQPGGSLRLSCAASGFTFRSFGMSWVRQAPGKGPEWVSSISGSGSDTLYADSVKGRFTISRDNSKNTLYLQMNSLRPEDTALYYCTIGGSLSRSSQGTLVTVSSA |  |  |  |  | > 1e-07 M | 3.82e-10 M | 1.53e-09 M |  | 6.18e-10 M | 
7 | A022600175 (other) DVQLVESGGGVVQPGGSLRLSCVASGYVHKINFYGWYRQAPGKEREKVAHISIGDQTDYADSAKGRFTISRDESKNTVYLQMNSLRPEDTAAYYCRALSRIWPYDYWGQGTLVTVSSGGGGSEVQLVESGGGLVQPGGSLRLSCVASGFTFSSFAMTWVRRPPGKGLEWVATITNGGVTSYRDSVKGRFTISRDNAKNTLYLEMTSLNPEDTAVYICANARRTGPRAPTDIGSYRGQGTLVTVSSGGGGSGGGSEVQLVESGGGLVQPGGSLRLSCVASGSIFRSVFSSSTMEWYRQPPGKKRELVARIAPGDGTNYGALYADSVKGRFTISRDDAKKTVDLQMNSLKPEDTGVYFCASGVAWGQGTLVTVSSGGGGSGGGGSGGGGSGGGGSGGGGSGGGGSGGGGSEVQLVESGGGVVQPGGSLRLSCAASGFTFRSFGMSWVRQAPGKGPEWVSSISGSGSDTLYADSVKGRFTISRDNSKNTLYLQMNSLRPEDTALYYCTIGGSLSRSSQGTLVTVSSA | 527 pM | 96% | 58.6 pM | 99% |  |  |  |  |  | HepG2 on Incucyte IC50 [4]: 527 pM; HepG2 on Incucyte Max % killing [4]: 96%; Huh7 on xCELLigence IC50 [4]: 58.6 pM; Huh7 on xCELLigence Max % killing [4]: 99%
8 | A022600425 (other) DVQLVESGGGVVQPGGSLRLSCVASGYVHKINFYGWYRQAPGKEREKVAHISIGDQTDYADSAKGRFTISRDESKNTVYLQMNSLRPEDTAAYYCRALSRIWPYDYWGQGTLVTVSSGGGGSEVQLVESGGGVVQPGGSLRLSCAASGSIFRSVFSSSTMEWYRQAPGKKRELVARIAPGEGTYYGALYADSVKGRFTISRDNAKNTVYLQMNSLRPEDTALYYCASGVAWGQGTLVTVSSGGGGSGGGGSGGGGSGGGGSEVQLVESGGGVVQPGGSLRLSCAASGFTFSSFAMTWVRRPPGKGLEWVATITNAGVTSYADSVKGRFTISRDNAKNTLYLQMNSLRPEDTALYICANARRTGPRAPTDIGSYRGQGTLVTVSSGGGGSGGGSEVQLVESGGGVVQPGGSLRLSCAASGFTFRSFGMSWVRQAPGKGPEWVSSISGSGSDTLYADSVKGRFTISRDNSKNTLYLQMNSLRPEDTALYYCTIGGSLSRSSQGTLVTVSSA |  |  |  |  | > 1e-07 M | 1.11e-10 M | 1.58e-10 M | > 1e-07 M | 2.59e-10 M | 
9 | A022600426 (other) DVQLVESGGGVVQPGGSLRLSCVASGYVHKINFYGWYRQAPGKEREKVAHISIGDQTDYADSAKGRFTISRDESKNTVYLQMNSLRPEDTAAYYCRALSRIWPYDYWGQGTLVTVSSGGGGSEVQLVESGGGVVQPGGSLRLSCAASGSIFRSVFSSSTMEWYRQAPGKKRELVARIAPGEGTYYGALYADSVKGRFTISRDNAKNTVYLQMNSLRPEDTALYYCASGVAWGQGTLVTVSSGGGGSGGGGSGGGGSGGGGSEVQLVESGGGVVQPGGSLRLSCAASGFTFSSFAMTWVRRPPGKGLEWVATITNKGVTSYADSVKGRFTISRDNAKNTLYLQMNSLRPEDTALYICANARRTGPRAPTDIGSYRGQGTLVTVSSGGGGSGGGSEVQLVESGGGVVQPGGSLRLSCAASGFTFRSFGMSWVRQAPGKGPEWVSSISGSGSDTLYADSVKGRFTISRDNSKNTLYLQMNSLRPEDTALYYCTIGGSLSRSSQGTLVTVSSA |  |  |  |  | > 1e-07 M | 1.25e-10 M | 1.09e-10 M | > 1e-07 M | 2.64e-10 M | 

— US20240343823A1 (Ablynx, published 2024)
